The results in this text go back to patent US20210062131A1, “In Vitro, Multi-Niche, Bone Marrow-on-a-Chip” (Georgia Tech Research Corporation, priority 2018, published 2021).

In this assay the test system is CXCL12. Description: CXCL12 expression by immunohistochemistry in BMOC device after adding mobilizing agents. It counts as cell-based, human. The conditions noted are these: BMOC with OBs, HUVECs and MSCs; G-CSF and AMD3100 added on day 5, cells fixed and stained on day 6; IHC. The procedure: Cells were fixed and stained on day 6. CXCL12 expression was measured by immunohistochemistry (IHC); n=2-3 devices (× 5 ROI each), mean±SD.
Staining procedure for devices was adapted from previously reported approaches. Devices were washed with PBS, fixed with 4% formaldehyde (ThermoFisher), and permeabilized with 0.1% Triton X-100. Prior to staining, cells were blocked with 5% BSA, 3% goat serum in PBS. Primary antibodies were diluted (1:100) in blocking buffer and devices were stained overnight at 4° C. Devices were then washed with 0.1% BSA in PBS and stained with secondary antibodies (1:200) diluted in wash buffer for 3 hours at RT. Devices were washed with wash buffer and then stained with DAPI (1:1000) and Phalloidin AF647 (1:40).

B1: G-CSF: mobilizing agent added to the BMOC device (protein, UniProt P09919 31-207, looked up)
Granulocyte …: TPLGPASSLPQSFLLKCLEQVRKIQGDGAALQEKLVSECATYKLCHPEELVLLGHSLGIPWAPLSSCPSQALQLAGCLSQLHSGLFLYQGLLQALEGISPELGPTLDTLQLDVADFATTIWQQMEELGMAPALQPTQGAMPAFASAFQRRAGGVLVASHLQSFLEVSYRVLRHLAQP
As to B1, the “expression of cytokine CXCL12” value was “decrease expression of cytokine CXCL12”.
